The target of assay [1] is M. tuberculosis trehalose synthase TreS (M. tuberculosis H37Rv) (UniProt P9WQ19). Briefly: AUC.
Assay [2] shares this target. The experiment in a line: AUC. This is another data set of the same source.

Like-named read-outs stand apart in the source and are kept apart here.

Chain of M. tuberculosis trehalose synthase TreS (M. tuberculosis H37Rv) (P9WQ19 whole entry): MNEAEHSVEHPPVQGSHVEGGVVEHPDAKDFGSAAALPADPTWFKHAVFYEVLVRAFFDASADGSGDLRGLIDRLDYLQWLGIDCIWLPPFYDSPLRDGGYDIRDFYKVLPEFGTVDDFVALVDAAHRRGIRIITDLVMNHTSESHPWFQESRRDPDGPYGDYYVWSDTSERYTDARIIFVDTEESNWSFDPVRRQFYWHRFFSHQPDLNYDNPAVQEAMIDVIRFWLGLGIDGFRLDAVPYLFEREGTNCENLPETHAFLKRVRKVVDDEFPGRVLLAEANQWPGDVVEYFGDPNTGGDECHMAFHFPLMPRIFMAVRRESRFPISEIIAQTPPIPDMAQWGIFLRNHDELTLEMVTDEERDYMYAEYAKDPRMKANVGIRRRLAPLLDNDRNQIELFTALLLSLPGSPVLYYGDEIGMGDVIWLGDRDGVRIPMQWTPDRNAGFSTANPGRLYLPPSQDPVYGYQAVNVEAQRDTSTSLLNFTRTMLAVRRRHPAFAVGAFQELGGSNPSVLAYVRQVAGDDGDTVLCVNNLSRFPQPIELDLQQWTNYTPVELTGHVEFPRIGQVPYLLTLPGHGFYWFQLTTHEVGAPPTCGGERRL

Consider “M. tuberculosis maltokinase Pep2 (from UniProt O07177 1-455) (enzyme)”, for which the results for the stoichiometry N (Pep2 subunits per TreS tetramer) in assay [1] and in assay [2] were 2 and 4, respectively.

(Values after paper PMC3805332, “Synthesis of α-Glucan in Mycobacteria Involves a Hetero-octameric Complex of Trehalose Synthase TreS and Maltokinase Pep2” (ACS Chemical Biology, 2013).)
